Patent US9289490B2, “Combinations and uses thereof” (MORPHOSYS AG, priority 2010, dated 2016)
Values joined by “and” are separate entries in the source; they are usually repeats but may differ in a detail not shown here. Equal values may be shown once. Read-outs that look alike come from different tables or passages of the source. Marks after values point to notes of the source that are not given here.

Columns and labels:
NCI-H929 MM cells = assay: NCI-H929 bone lysis SCID mouse model, MOR202 and BOR (MicroCT); format: in vivo, SCID mice; set-up: Trabecular Bone Volume (Tb · BV), individual mouse / Trabecular Bone Volume (Tb · BV), Average: unit not given here
Description: (§1) 63 SCID mice were inoculated on Day (−7) intra-tibially with 2.5×10^6 NCI-H929 MM cells in order to induce bone lysis. Bortezomib (Groups A and AB) and Vehicle Control (Group C) treatments started on Day (−1). MOR202 treatments (Groups B and AB) started on Day 0. Treatment continued for 6 weeks.
MicroCT Scan was used to assess bone lysis and included a 3-dimensional analysis comprising Total Bone Volume (TBV), Trabecular Bone Volume (Tb.BV), Trabecular Pattern Factor (Tb.Pf) and Structure Model Index (SMI). Table 10 above defines each of these parameters.

NCI-H929 cells = assay: ADCC with human PBMCs, flow cytometry (CalceinAM/PI); settings: for % dead cells (raw data, Table 7a), Exp. 2 and 3 / % dead cells (raw data, Table 7a), Exp. 1: PBMCs and NCI-H929 cells treated with LEN before MOR202; for % dead cells (raw data, Table 7a), Exp. 2 and 3 / % dead cells (raw data, Table 7a), Exp. 1 / % dead cells (raw data, Table 8a), Exp. 2 and 3 / % dead cells (raw data, Table 8a), Exp. 1: MOR03207 15 μg/ml; for % dead cells (raw data, Table 8a), Exp. 2 and 3 / % dead cells (raw data, Table 8a), Exp. 1: only effector cells treated with LEN before MOR202
AMO-1 cells = assay: as above; format: cell-based
Method: For Tables 3b-c, “Theoretical Combination” represents the addition of the values of MOR202 alone and the values of LEN alone. The normalized data of Table 3b is calculated as follows. Therefore, the specific killing values of Table 3b are calculated by subtracting the values of the controls. Then the specific killing values are compared to the MOR202 group, which is set as 1.
The constant m determines the shape of the dose-effect curve. We used Excel Fit software to carry out a linear regression calculation to estimate the parameters m and D50.
The CI-isobol method provides a quantitative assessment of synergism between drugs. A combination index (CI) is estimated from dose-effect data of single and combined drug treatments. […] Formally, the combination index (CI) of a combined drug treatment is defined as CI=D1/Dx1+D2/Dx2
The data is analysed in the following way: Antagonistic(AB)/C<(A/C)×(B/C) Additive(AB)/C=(A/C)×(B/C) Synergistic(AB)/C>(A/C)×(B/C) where A is the treatment with LEN alone; B is the treatment with MOR202 alone; C is response to the treatment vehicle; AB is combination of treatments A and B.

[1] = test system: NCI-H929 human multiple myeloma cells; assay: NCI-H929 bone lysis SCID mouse MM model, MOR202 and LEN (MicroCT); format: in vivo, SCID mice; set-up: Trabecular Bone Volume (Tb · BV), individual mouse / Trabecular Bone Volume (Tb · BV), Mean: unit not given here
Method: as §1, with “orthotopically into the right tibia” for “intra-tibially”, “cells (in 5 μL)” for “cells”, “Lenalidomide” for “Bortezomib”, “D)” for “AB)”
MicroCT Scan was used to assess bone lysis and included […] analysis comprising Total Bone Volume (TBV), Trabecular Bone Volume (Tb.BV), Trabecular Pattern Factor (Tb.Pf) and Structure Model Index (SMI). Table 10 defines each of these parameters.

RAMOS cells [2] = assay: RAMOS non-Hodgkin tumor SCID mouse survival model, MOR202 and lenalidomide; format: in vivo, SCID mice
Method: Sixty-eight female SCID mice were pre-treated with Cyclophosphamide (75 mg/kg, i.p., twice daily) for two days prior to RAMOS cell inoculation (Day −5 and −4). On the day of inoculation (Day −3), all mice were inoculated with 1×10^6 RAMOS cells each intravenously into the tail vein. Sixty-four of the mice were randomised by body weight into eight groups of eight.
The study continued for 98 days and the measured endpoint was survival.

RAMOS cells [3] = settings: BOR 0.6 mg/kg i.p., MOR202 1 mg/kg i.v.
Method: Fifty-five female SCID mice were pre-treated with Cyclophosphamide (75 mg/kg, i.p., twice daily) for two days prior to RAMOS cell inoculation (Day −5 and −4). On the day of inoculation (Day −3), all fifty-five mice were inoculated with 1×10^6 RAMOS cells each (in 100 μL) intravenously into the tail vein. Forty-eight of the mice were randomised by body weight into six groups of eight.

[4] = Bortezomib 0.6 mg/kg i.p. twice per week, MOR202 3 mg/kg i.p. three times per week, 6 weeks, lower = less bone lysis
[5] = group average of 10 mice, Bortezomib 0.6 mg/kg i.p., MOR202 3 mg/kg i.p., 6 weeks
[6] = LEN 50 mg/kg p.o. once daily, MOR202 3 mg/kg i.p. 3 times weekly, 6 weeks, lower = less bone lysis, listed as MOR03087
[7] = group mean of 10 mice, LEN 50 mg/kg p.o., MOR202 3 mg/kg i.p., 6 weeks

B1: MOR202: anti-CD38 antibody whose amino acid sequence is provided in FIG. 11; IgG1 (antibody, V domains shown)
VH: QVQLVESGGGLVQPGGSLRLSCAASGFTFSSYYMNWVRQAPGKGLEWVSGISGDPSNTYYADSVKGRFTISRDNSKNTLYLQMNSLRAEDTAVYYCARDLPLVYTGFAYWGQGTLVTVSS
VL: DIELTQPPSVSVAPGQTARISCSGDNLRHYYVYWYQQKPGQAPVLVIYGDSKRPSGIPERFSGSNSGNTATLTISGTQAEDEADYYCQTYTGGASLVFGGGTKLTVLGQ
Structure Model Index (SMI), individual mouse (NCI-H929 MM cells; [4]): 2.546 and 2.079 and 2.296 and 2.429 and 1.871 and 2.193 and 2.368 (2×) and 2.436 and 2.511
Trabecular Pattern Factor (Tb · Pf), individual mouse (NCI-H929 MM cells; [4]): 27.363 mm^−1 and 19.479 mm^−1 and 21.858 mm^−1 and 23.814 mm^−1 and 16.347 mm^−1 and 19.748 mm^−1 and 25.212 mm^−1 and 21.276 mm^−1 and 24.031 mm^−1 and 25.056 mm^−1
Structure Model Index (SMI), Average (NCI-H929 MM cells; [5]): 2.31
Total Bone Volume (TBV), Average (NCI-H929 MM cells; [5]): 1.988 mm^3
Trabecular Bone Volume (Tb · BV), Average (NCI-H929 MM cells; [5]): 0.296
Trabecular Pattern Factor (Tb · Pf), Average (NCI-H929 MM cells; [5]): 22.418 mm^−1
Reduction of bone lysis compared to vehicle control (NCI-H929 MM cells; non-inoculated tibia = 0%, vehicle = 100% bone lysis, MOR202 alone 12 mg/kg, BOR alone 0.6 mg/kg, combination 3 mg/kg MOR202 and 0.6 mg/kg BOR): up to 55%
% dead cells (raw data, Table 7a), Exp. 2 and 3 (NCI-H929 cells; LEN 5 μM, MOR202 0.07 μg/ml): 32.54 % dead cells and 43.08 % dead cells
% dead cells (raw data, Table 7a), Exp. 1 (NCI-H929 cells; LEN 5 μM, MOR202 0.2 μg/ml (*)): 30.64* % dead cells
Normalized specific killing, fractional product combination set as 1 (Table 7b), Exp. 2 and 3 (NCI-H929 cells; PBMCs and NCI-H929 cells treated with LEN, LEN 5 μM, MOR202 0.07 μg/ml): 0.45 and 0.58
Normalized specific killing, fractional product combination set as 1 (Table 7b), Exp. 1 (NCI-H929 cells; PBMCs and NCI-H929 cells treated with LEN, LEN 5 μM, MOR202 0.2 μg/ml (*)): 0.42*
Normalized specific killing, AVERAGE (Table 7b) (NCI-H929 cells; PBMCs and NCI-H929 cells treated with LEN, LEN 5 μM, MOR202 0.2 or 0.07 μg/ml, average of 3 experiments): 0.48
% dead cells (raw data, Table 8a), Exp. 2 and 3 (NCI-H929 cells; LEN 5 μM, MOR202 0.07 μg/ml): 53.74 % dead cells and 47.00 % dead cells
% dead cells (raw data, Table 8a), Exp. 1 (NCI-H929 cells; LEN 5 μM, MOR202 0.2 μg/ml (*)): 26.60* % dead cells
Normalized specific killing, fractional product combination set as 1 (Table 8b), Exp. 2 and 3 (NCI-H929 cells; only effector cells treated with LEN, LEN 5 μM, MOR202 0.07 μg/ml): 0.97 and 0.91
Normalized specific killing, fractional product combination set as 1 (Table 8b), Exp. 1 (NCI-H929 cells; only effector cells treated with LEN, LEN 5 μM, MOR202 0.2 μg/ml (*)): 1.09*
Normalized specific killing, AVERAGE (Table 8b) (NCI-H929 cells; only effector cells treated with LEN, LEN 5 μM, MOR202 0.2 or 0.07 μg/ml, average of 3 experiments): 0.99
Normalized specific killing, MOR202 treatment group set as 1 (Table 3b) (AMO-1 cells; PBMCs and AMO-1 cells treated with LEN, LEN 10 μM, MOR202 and MOR03207 15 μg/ml, controls subtracted, Exp. 1-3): 1.0
Normalized specific killing, theoretical combination set as 1 (Table 3c) (AMO-1 cells; PBMCs and AMO-1 cells treated with LEN, MOR202 0.42 μg/ml, LEN 5 μM, Experiment 1-3): 0.9 and 0.6
Normalized specific killing, theoretical combination set as 1, AVERAGE (Table 3c) (AMO-1 cells; PBMCs and AMO-1 cells treated with LEN, MOR202 0.42 μg/ml, LEN 5 μM, average of 3 experiments): 0.8
Normalized specific killing, MOR202 treatment group set as 1 (Table 4b) (AMO-1 cells; only effector cells treated with LEN, LEN 10 μM, MOR202 and MOR03207 15 μg/ml, Exp. 1-3): 1.0
Normalized specific killing, theoretical combination set as 1 (Table 4c) (AMO-1 cells; only effector cells treated with LEN, MOR202 0.42 μg/ml, LEN 5 μM, Experiment 1-3): 0.8 and 1.2 and 0.7
Normalized specific killing, theoretical combination set as 1, AVERAGE (Table 4c) (AMO-1 cells; only effector cells treated with LEN, MOR202 0.42 μg/ml, LEN 5 μM, average of 3 experiments): 0.9
Structure Model Index (SMI), individual mouse [1, 6]: 2.386 and 1.818 and 2.423 and 2.450 and 1.860 and 2.461 and 2.558 and 2.247 and 2.318 and 2.275
Trabecular Pattern Factor (Tb · Pf), individual mouse [1, 6]: 27.049 mm^−1 and 15.631 mm^−1 and 27.631 mm^−1 and 27.523 mm^−1 and 17.887 mm^−1 and 21.405 mm^−1 and 26.345 mm^−1 and 20.327 mm^−1 and 25.843 mm^−1 and 22.402 mm^−1
Structure Model Index (SMI), Mean [1, 7]: 2.28
Total Bone Volume (TBV), Mean [1, 7]: 2.467 mm^3
Trabecular Bone Volume (Tb · BV), Mean [1, 7]: 0.323
Trabecular Pattern Factor (Tb · Pf), Mean [1, 7]: 23.204 mm^−1
Structure Model Index (SMI), Mean ([1]; group mean of 10 mice, LEN 50 mg/kg p.o., MOR202 3 mg/kg i.p., 6 weeks, listed as MOR03087): 2.280
Reduction of bone lysis compared to vehicle control ([1]; non-inoculated tibia = 0%, vehicle = 100% bone lysis, MOR202 alone 12 mg/kg, LEN alone 50 mg/kg, combination 3 mg/kg MOR202 and 50 mg/kg LEN): up to 55%
Number of mice alive at study termination (day 98) (RAMOS cells [2]; LEN 100 mg/kg (Table 14) p.o., MOR202 1 mg/kg i.v.): 0/8
Day of death (post-inoculation) Mean (RAMOS cells [2]; LEN 100 mg/kg (Table 14) p.o., MOR202 1 mg/kg i.v. twice weekly, study 98 days): 49.6 days
% ILS (based on median death day) (RAMOS cells [2]; LEN 100 mg/kg (Table 14) p.o., MOR202 1 mg/kg i.v., vs vehicle control): 155%
Day of death (post-inoculation) Median (RAMOS cells [2]; LEN 100 mg/kg (Table 14; Table 13: 50 mg/kg) p.o. once daily, MOR202 1 mg/kg i.v. twice weekly, study 98 days): 51 days
Number of mice alive at study termination (day 98) (RAMOS cells [3]): 0/8
Day of death (post-inoculation) Mean (RAMOS cells [3]; study 98 days): 43.6 days
Day of death (post-inoculation) Median (RAMOS cells [3]; study 98 days): 43.5 days
% ILS (based on median death day) (RAMOS cells [3]; vs vehicle control): 112%

B2: MOR03207: binds lysosyme, and is used as isotype control, as it is IgG1 (SEQ ID NO: 8, 9) (antibody, V domains shown)
VH: QVQLQQSGPGLVKPSQTLSLTCAISGDSVSSNSAAWSWIRQSPGRGLEWLGRIYYRSKWYNDYAVSVKSRITINPDTSKNQFSLQLNSVTPEDTAVYYCARLDHRYHEDTVYPGMDVWGQGTLVTVSS
VL: DIELTQPPSVSVAPGQTARISCSGDNLPAYTVTWYQQKPGQAPVLVIYDDSDRPSGIPERFSGSNSGNTATLTISGTQAEDEADYYCASWDPSSGVVFGGGTKLTVLGQ
modifications: /mol_type=“protein” /note=“variable heavy chain” /organism=“synthetic construct”; /mol_type=“protein” /note=“variable light chain” /organism=“synthetic construct”
% dead cells (raw data, Table 7a), Exp. 2 and 3 (NCI-H929 cells; LEN 5 μM, MOR202 0.07 μg/ml): 14.09 % dead cells and 19.20 % dead cells
% dead cells (raw data, Table 7a), Exp. 1 (NCI-H929 cells; LEN 5 μM, MOR202 0.2 μg/ml (*)): 17.81 % dead cells
% dead cells, MOR03207 (15 μg/ml) + DMSO (Table 7a) (NCI-H929 cells; control group, PBMCs and NCI-H929 cells LEN-treated series, Exp. 1-3): 13.74 % dead cells and 18.27 % dead cells and 20.26 % dead cells
% dead cells, MOR03207 (15 μg/ml) + DMSO (Table 8a) (NCI-H929 cells; control group, effector-only series, Exp. 1-3): 24.43 % dead cells and 19.52 % dead cells and 24.16 % dead cells
% dead cells (raw data, Table 8a), Exp. 2 and 3 (NCI-H929 cells; LEN 5 μM, MOR202 0.07 μg/ml): 27.10 % dead cells and 23.19 % dead cells
% dead cells (raw data, Table 8a), Exp. 1 (NCI-H929 cells; LEN 5 μM, MOR202 0.2 μg/ml (*)): 17.07 % dead cells
% dead cells, MOR03207 15 μg/ml + DMSO (Table 4a) (AMO-1 cells; control group of the effector-only experiments, Exp. 1-3): 15.77 % dead cells and 15.97 % dead cells and 11.45 % dead cells
% dead cells (raw data, Table 4a) (AMO-1 cells; only PBMCs (effector cells) treated with LEN before MOR202, LEN 10 μM, MOR202 and MOR03207 15 μg/ml, Exp. 1-3): 17.42 % dead cells and 16.17 % dead cells and 12.17 % dead cells
